Among the data in the RNAGym collection of RNA variant scans (doi:10.7554/elife.90254) are self-cleavage values, retold here.

To fix the notation:
B1: OR4K15 (parent)
chain: GUUAACGGUCAUAGGCCAUGGAAACUAGGAGCACCAUUUCGCUGCCAGUGAAGAAAUGAACAAAGAAAAUCUGGGCCAGGCAGGCAUCAAAAGAAAUAGUCUUGCGCUCAACCAGAAAGUCUGUAAUCAUUUUAAGGGUA

The variants in the data set derive from B1. In words: self-cleavage, relative activity (ratio to wild type); higher = more cleavage; in vitro, sequencing; the parent is a self-cleaving ribozyme.
In the case of A30G A66U, the self-cleavage was 1.22.

For the variant A30G A66G, the self-cleavage turned out to be 1.21.

With G31U A52G, the self-cleavage came to 1.71.

With A30G U38A, the self-cleavage amounted to 0.72.

For A30G U38C, the self-cleavage was found to be 1.62.

With A33G A60G, the self-cleavage came out at 0.98.

For A30C A59G, the self-cleavage worked out at 0.35.

As for A30U U102C, the self-cleavage was 1.81.

As to A33G C112G, the self-cleavage is 0.02.

Regarding A33U A96G, the self-cleavage turned out to be 0.16.

Regarding G31U A129G, the self-cleavage is 1.78.

On to A33U A78G, for which the self-cleavage came to 0.29.

For A33U U103C, the self-cleavage worked out at 0.84.

With A30G A54G, the self-cleavage stood at 1.21.

On to G31C U139C, for which the self-cleavage amounted to 1.53.

Consider A33U A114G, for which the self-cleavage is 0.64.

Regarding A33U A114U, the self-cleavage is 0.08.

With A30G U130C, the self-cleavage stood at 0.6.

Take A30G U130G: the self-cleavage was found to be 1.09.

Take A33U C77A: the self-cleavage is 1.

As to A33G U120G, the self-cleavage was 0.65.

As to A33G A56C, the self-cleavage is 0.41.

On to A30U C113U, for which the self-cleavage was 0.04.

Take A30U A54C: the self-cleavage was 1.77.

Take G31U A47G: the self-cleavage is 1.05.

For C32U C40U, the self-cleavage stood at 2.05.

Take A30U A86G: the self-cleavage is 1.87.

On to A30C U108C, for which the self-cleavage came to 0.

In the case of A30G A56U, the self-cleavage came to 1.02.

Consider A30G A56G, for which the self-cleavage is 1.27.

Turning to A30G A33G, the self-cleavage turned out to be 1.17.

Take A33C A47G: the self-cleavage is 1.05.

Regarding G31A A69U, the self-cleavage came out at 2.21.

With A33U A95G, the self-cleavage turned out to be 1.66.

In the case of A33U A47U, the self-cleavage was determined as 0.84.

Take A33U A47G: the self-cleavage was 1.68.

With A30G A96U, the self-cleavage stood at 1.72.

As for A30G A96G, the self-cleavage came to 1.25.

As for A33G C81U, the self-cleavage stood at 0.17.

A30G A114C: the self-cleavage worked out at 0.07.

As for A30G A116G, the self-cleavage is 0.66.

Consider A30G A116C, for which the self-cleavage stood at 0.03.

Turning to A33U A68G, the self-cleavage stood at 1.28.

For G31A U139C, the self-cleavage amounted to 1.82.

For the variant G31A U139A, the self-cleavage is 1.78.

As for A33U G48A, the self-cleavage came out at 1.42.

On to A33G A117U, for which the self-cleavage is 0.74.

Turning to A33G A117G, the self-cleavage came out at 0.7.

On to A30G C71U, for which the self-cleavage came to 0.62.

Regarding A30G A82U, the self-cleavage was 0.25.

A30G A82G: the self-cleavage came out at 0.6.

As to A30U U108A, the self-cleavage amounted to 0.05.

For the variant G31A A59G, the self-cleavage came to 1.04.

For the variant G31A A59U, the self-cleavage amounted to 0.76.

As for A33G U130C, the self-cleavage was 0.66.

Take A33G U130A: the self-cleavage is 1.1.

With A33U A126U, the self-cleavage was 1.67.

A33U A126G: the self-cleavage came to 1.4.

In the case of A30U U43C, the self-cleavage was 1.88.

On to C32U U124A, for which the self-cleavage turned out to be 0.41.

For A30G C105U, the self-cleavage stood at 0.17.

A30G C112U: the self-cleavage was 0.04.

As for A30G C112A, the self-cleavage was found to be 0.02.

With A30U A140G, the self-cleavage worked out at 0.96.

As for C32U A86G, the self-cleavage amounted to 1.82.

As to A30G C34A, the self-cleavage amounted to 0.85.

Take A30U A47U: the self-cleavage was 0.19.

Turning to A33G A64C, the self-cleavage came to 1.17.

As to A33G A64U, the self-cleavage worked out at 0.99.

For the variant A33G G53C, the self-cleavage turned out to be 0.81.

Consider A30C U120C, for which the self-cleavage amounted to 0.69.

In the case of A33G A78G, the self-cleavage is 0.19.

With C32G A96U, the self-cleavage came out at 1.87.

For the variant A33G G58A, the self-cleavage turned out to be 0.55.

For G29U U102A, the self-cleavage is 1.

Turning to C32U U38C, the self-cleavage came to 1.02.

Consider A30U U39C, for which the self-cleavage was found to be 0.9.

Take A30U U39A: the self-cleavage is 2.07.

For A30C, the self-cleavage stood at 1.6.

As to A30U, the self-cleavage was 1.24.

A30G: the self-cleavage was 1.28.

With G31A C105U, the self-cleavage was 0.25.

On to A30G G123U, for which the self-cleavage worked out at 0.53.

On to A30U U100C, for which the self-cleavage was 2.08.

On to A30G A68G, for which the self-cleavage came to 1.49.

Turning to A30U A110G, the self-cleavage is 0.1.

A33C U102C: the self-cleavage came to 2.22.

With A33U C81U, the self-cleavage amounted to 0.27.

C32U U72C: the self-cleavage was 0.2.

With A30U G138A, the self-cleavage stood at 2.22.

Consider A33C U132C, for which the self-cleavage was found to be 1.46.

Turning to G31C U133C, the self-cleavage came to 1.95.

As for A30G A51G, the self-cleavage turned out to be 1.07.

Regarding A33U U127C, the self-cleavage worked out at 1.

For A33U A51U, the self-cleavage worked out at 0.89.

In the case of A33U A98G, the self-cleavage worked out at 1.53.

As to A33C A89G, the self-cleavage was determined as 1.31.

G31U A92G: the self-cleavage was determined as 1.27.

Regarding C32A U132C, the self-cleavage stood at 0.85.

For A30U U120C, the self-cleavage came to 1.29.

A33G A82U: the self-cleavage was 0.1.

On to A33G A82G, for which the self-cleavage is 0.35.

Consider A30G U132C, for which the self-cleavage was 1.36.

Turning to A30G A63U, the self-cleavage is 1.17.

For A30G A69G, the self-cleavage came out at 1.27.

For the variant A30G A89U, the self-cleavage worked out at 1.09.

As for A30G A89C, the self-cleavage is 0.8.

Regarding A30G A89G, the self-cleavage is 0.71.

Consider C32A A63G, for which the self-cleavage came out at 1.46.

With A33G U39C, the self-cleavage came out at 0.8.

For the variant A33G U39A, the self-cleavage stood at 1.23.

Consider A30G C101A, for which the self-cleavage came out at 0.14.

With G31A A86U, the self-cleavage was found to be 0.91.

For the variant G31A A86G, the self-cleavage is 1.75.

In the case of A33C U122A, the self-cleavage was determined as 1.61.

As for A33C U122C, the self-cleavage was found to be 1.09.

In the case of A30G A117C, the self-cleavage stood at 0.61.

Regarding A30G A117U, the self-cleavage is 0.99.

A30U U70A: the self-cleavage was 1.71.

As to A30U U70C, the self-cleavage turned out to be 0.71.

Turning to C32A A56G, the self-cleavage is 0.28.

With A33G A96G, the self-cleavage is 0.96.

In the case of A30U U72A, the self-cleavage amounted to 0.27.

As to A30U U72C, the self-cleavage is 0.27.

With A30U A91G, the self-cleavage is 1.35.

Regarding A30U A51G, the self-cleavage turned out to be 1.55.

Turning to A33G A91G, the self-cleavage came out at 0.29.

For the variant A30U U49C, the self-cleavage worked out at 1.48.

For the variant A30U U49A, the self-cleavage came to 1.3.

For A33G A67U, the self-cleavage came to 1.36.

Turning to A33U C34A, the self-cleavage came to 1.81.

In the case of A30G A64G, the self-cleavage stood at 1.35.

As for A33U A116G, the self-cleavage came to 1.55.

As to A33G A118U, the self-cleavage is 0.47.

Take A30G U39C: the self-cleavage is 1.05.

In the case of A30G U39A, the self-cleavage came to 0.39.

Take A33U C76G: the self-cleavage worked out at 0.17.

As for A30U A56G, the self-cleavage was found to be 0.82.

For A30G U87C, the self-cleavage turned out to be 1.39.

On to A30G A52G, for which the self-cleavage is 1.13.

Consider A30C A116G, for which the self-cleavage is 0.89.

On to G31A U132C, for which the self-cleavage stood at 1.72.

With A30G C109A, the self-cleavage worked out at 0.23.

Turning to A30U A116G, the self-cleavage came out at 1.27.

With A30G A110G, the self-cleavage was 0.15.

Take A33C G73A: the self-cleavage came out at 0.33.

For the variant G31U U102A, the self-cleavage was 2.03.

A33G U72G: the self-cleavage worked out at 0.14.

On to A33G U72C, for which the self-cleavage stood at 0.12.

With A33G U72A, the self-cleavage was determined as 0.12.

Take A33G C113U: the self-cleavage was 0.02.

As to C32U U102C, the self-cleavage is 1.73.

In the case of A33G G106A, the self-cleavage came to 0.04.

In the case of C32G A54U, the self-cleavage stood at 1.14.

As for A30G U57C, the self-cleavage was 1.29.

On to A30G U103A, for which the self-cleavage was 0.17.

Take A33U A111G: the self-cleavage worked out at 0.03.

A33G A129C: the self-cleavage was found to be 0.63.

On to A33G U132A, for which the self-cleavage was 0.51.

A33G U132C: the self-cleavage stood at 0.83.

For the variant A33G C34A, the self-cleavage worked out at 1.19.

With A30G U100C, the self-cleavage was 1.93.

For A30G U100A, the self-cleavage was found to be 0.49.

As to A33G U57C, the self-cleavage came out at 0.64.

In the case of A33C A126G, the self-cleavage was 1.8.

Turning to A30U C81U, the self-cleavage was 0.51.

Consider C32U C121U, for which the self-cleavage worked out at 2.22.
